According to article PMC11344771, “The Chlamydia pneumoniae effector SemD exploits its host’s endocytic machinery by structural and functional mimicry” (Nature Communications, 2024):

B1: Cdc42 bound to a non-hydrolysable GTP analogue (Cdc42_(GppNHp)) (natural protein)
chain: not shown
notes: human CDC42 in pGEX-4T-1; also called Cdc42_(mGppNHp); active Cdc42; source: E. coli Rosetta, purified (Glutathione sepharose, thrombin cleavage), loaded with GppNHp or mGppNHp
B2: SNX9-SH3 (domain or fragment)
chain: MATKARVMYDFAAEPGNNELTVNEGEIITITNPDVGGGWLEGRNIKGERGLVPTDYVEILPS

Assays:
[1] = biological target: T1, BR-GBD fused to GFP (BR-GBD_(GFP-His)) (Rattus norvegicus, UniProt O08816 142-273); test: pull-down; GFP-Trap agarose, BR-GBD_(GFP-His) or GFP alone as bait, equimolar test protein, 5 min RT then 30 min 4 °C, washed 6x with 10 mM Tris-HCl, 200 mM NaCl, pH 8.5; immunoblot, Elution:FT ratio normalised to the bait; settings: both partners purified
T1 construct: amplified from GFP-N-WASP (Addgene #47406), in pDS94; source: E. coli BL21 (DE3), purified (Ni-NTA Agarose); not shown: GFP, C-terminal, kept; 10xHis, C-terminal, kept

SemDΔAPH_(67-382) = biological target: T2, SemDΔAPH_(67-382) (Chlamydia pneumoniae); test: SEC-SAXS; Superdex200 increase 10/300 GL, PBS pH 8.5 + 3 % glycerol, 20 °C; 8 mg/ml SemDΔAPH, 10 mg/ml BR-GBD, 8 mg/ml SemDΔAPH + BR-GBD, 3.3 mg/l SemDΔAPH + SNX9-SH3; settings: both partners purified
T2 construct: SemD of Chlamydia pneumoniae (382 aa), N-terminally truncated up to and including the APH motif; residues 67-382 (G67-E382); from synthetic semD DNA codon optimised for E. coli; Monomer in solution by SAXS; also called SemDΔAPHHis; source: E. coli BL21 (DE3), purified (Ni-NTA Agarose, SEC); not shown: 10xHis, C-terminal, kept

T1 sequence (O08816 142-273): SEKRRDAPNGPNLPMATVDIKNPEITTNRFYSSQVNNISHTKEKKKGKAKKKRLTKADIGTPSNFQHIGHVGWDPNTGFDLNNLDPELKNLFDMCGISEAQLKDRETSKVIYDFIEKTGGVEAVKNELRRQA

| Binder | normalised Elution:FT ratio [1] | stoichiometry N (SemDΔAPH_(67-382)) |
| --- | --- | --- |
| B1 | ~100% | – |
| B2 | – | 1 |
